For experiment [1], the target named is thrombin.
In experiment [2] the target is thrombin. The source holds these as a separate data set.
Experiment [3] deals with thrombin. This is another data set of the same source.

On to “hirudin variant 1 with its endogenous wild-type signal peptide (WT-HV1), cell-free synthesized in CHO cell lysate (from UniProt P01050 1-65) (natural protein)”, for which the thrombin time test, clotting time with 10 µl SN2 fraction in experiment [1] was found to be 94 s. In experiment [2], this substance displayed a thrombin time test at equimolar 3.1 nmol/l, elongation of TT against rHV1 (fold against rHV1) of 9.

“hirudin variant 1 with its endogenous wild-type signal peptide (WT-HV1), cell-free synthesized in K562 cell lysate (from UniProt P01050 1-65) (natural protein)” came in with a thrombin time test, clotting time with 10 µl SN2 fraction in experiment [1] of 242 s. The same substance came in with a thrombin time test at 1, 4.9 and 9.8 nmol/l, potency against Mel-HV1 (fold against Mel-HV1) in experiment [3] above 10. In experiment [2], the thrombin time test at equimolar 3.1 nmol/l, effect against rHV1 (fold against rHV1) was found to be 100.

As for “hirudin variant 1 with its endogenous wild-type signal peptide (WT-HV1), cell-free synthesized in Sf21 cell lysate (from UniProt P01050 1-65) (natural protein)”, the thrombin time test, clotting time with 10 µl SN2 fraction in experiment [1] was 50 s. The thrombin time test at equimolar 3.1 nmol/l, elongation of TT against rHV1 (fold against rHV1) in experiment [2] is above 2.

The record behind these values is paper PMC7666225.
